# Source: article PMC2721272 (Journal of molecular biology, 2009)
# B1: Marasmius oreades agglutinin (natural protein, UniProt Q8X123 1-293, looked up)
# chain: MSLRRGIYHIENAGVPSAIDLKDGSSSDGTPIVGWQFTPDTINWHQLWLAEPIPNVADTFTLCNLFSGTYMDLYNGSSEAGTAVNGWQGTAFTTNPHQLWTIKKSSDGTSYKIQNYGSKTFVDLVNGDSSDGAKIAGWTGTWDEGNPHQKWYFNRMSVSSAEAQAAIARNPHIHGTYRGYILDGEYLVLPNATFTQIWKDSGLPGSKWREQIYDCDDFAIAMKAAVGKWGADSWKANGFAIFCGVMLGVNKAGDAAHAYNFTLTKDHADIVFFEPQNGGYLNDIGYDSYMAFY
# modifications: side chain of Cys215 oxidized in about 50% of the molecules in the crystal
# Target: the molecule itself
# Assay: crystal structure
protein,measurement,value
B1,stoichiometry N,2
